Source: the supplement of paper PMC10567573

B1: PI4K2A (parent)
chain: FVKDPQGRIIAVFKPKNEEPYGHL

Variants of: B1
Assay: protein stability index of a GFP-peptide fusion (GPS, HEK-293T) (PSI 1-6); higher = more stable
Conditions: c terminus: a fixed tail appended
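Also: lentivirally expressed fusions sorted by FACS into six bins by GFP to DsRed ratio, PSI derived from sequencing read proportions per bin multiplied by bin number.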

First: FVKDPQGRIIAVFKPKNEEPYGCL [H23C]
Second: FVKDPQGRIIAVFKPKNEEPYGDL [H23D]
The protein stability index of the first is lower: 1.94 for the first, 2.39 for the second.

First: FVKDPQGRIIAVFKPKNEEPYGEL [H23E]
Second: FVKDPQGRIIAVFKPKNEEPYGAL [H23A]
The protein stability index of the first is lower: 1.62 for the first, 1.65 for the second.

First: FVKDPQGRIIAVFKPKNEEPYGGL [H23G]
Second: FVKDPQGRIIAVFKPKNEEPYGFL [H23F]
The protein stability index of the first is higher: 2.6 for the first, 1.27 for the second.

First: FVKDPQGRIIAVFKPKNEEPYDHL [G22D]
Second: FVKDPQGRIIAVFKPKNEEPYTHL [G22T]
The protein stability index of the first is higher: 1.74 for the first, 1.41 for the second.

First: FVKDPQGRIIAVFKPKNEEPYIHL [G22I]
Second: FVKDPQGRIIAVFKPKNEEPYCHL [G22C]
The protein stability index of the first is lower: 1.74 for the first, 1.93 for the second.

Going from FVKDPQGRIIAVFKPKNEEPYLHL [G22L] to FVKDPQGRIIAVFKPKNEEPYNHL [G22N], the protein stability index falls from 2.03 to 1.73.

Going from FVKDPQGRIIAVFKPKNEEPYPHL [G22P] to FVKDPQGRIIAVFKPKNEEPYKHL [G22K], the protein stability index falls from 2.63 to 2.44.

Going from FVKDPQGRIIAVFKPKNEEPYQHL [G22Q] to FVKDPQGRIIAVFKPKNEEPYEHL [G22E], the protein stability index falls from 2.09 to 2.02.

Going from FVKDPQGRIIAVFKPKNEEPYWHL [G22W] to FVKDPQGRIIAVFKPKNEEPYFHL [G22F], the protein stability index rises from 1.72 to 1.81.

Going from FVKDPQGRIIAVFKPKNEEPYHHL [G22H] to FVKDPQGRIIAVFKPKNEEPYRHL [G22R], the protein stability index rises from 1.88 to 2.37.

First: FVKDPQGRIIAVFKPKNEEPYMHL [G22M]
Second: FVKDPQGRIIAVFKPKNEEPYAHL [G22A]
The protein stability index of the first is higher: 2.1 for the first, 1.66 for the second.

First: FVKDPQGRIIAVFKPKNEEPYYHL [G22Y]
Second: FVKDPQGRIIAVFKPKNEEPYVHL [G22V]
The protein stability index of the first is lower: 1.48 for the first, 1.55 for the second.

Compared with FVKDPQGRIIAVFKPKNEEPYSHL [G22S], FVKDPQGRIIAVFKPKNREPYGHL [E18R] is lower in protein stability index: 2.65 for the first, 2.1 for the second.

Compared with FVKDPQGRIIAVFKPKNNEPYGHL [E18N], FVKDPQGRIIAVFKPKNYEPYGHL [E18Y] is higher in protein stability index: 1.48 for the first, 2.98 for the second.

First: FVKDPQGRIIAVFKPKNTEPYGHL [E18T]
Second: FVKDPQGRIIAVFKPKNKEPYGHL [E18K]
The protein stability index of the first is lower: 1.35 for the first, 2.04 for the second.

First: FVKDPQGRIIAVFKPKNSEPYGHL [E18S]
Second: FVKDPQGRIIAVFKPKNIEPYGHL [E18I]
The protein stability index of the first is lower: 2.2 for the first, 2.22 for the second.

Compared with FVKDPQGRIIAVFKPKNMEPYGHL [E18M], FVKDPQGRIIAVFKPKNQEPYGHL [E18Q] is lower in protein stability index: 2.08 for the first, 1.8 for the second.

Going from FVKDPQGRIIAVFKPKNLEPYGHL [E18L] to FVKDPQGRIIAVFKPKNPEPYGHL [E18P], the protein stability index falls from 3.88 to 1.79.

Compared with FVKDPQGRIIAVFKPKNVEPYGHL [E18V], FVKDPQGRIIAVFKPKNEYPYGHL [E19Y] is lower in protein stability index: 2.23 for the first, 1.73 for the second.

Going from FVKDPQGRIIAVFKPKNERPYGHL [E19R] to FVKDPQGRIIAVFKPKNETPYGHL [E19T], the protein stability index rises from 1.34 to 2.09.

Compared with FVKDPQGRIIAVFKPKNEMPYGHL [E19M], FVKDPQGRIIAVFKPKNEDPYGHL [E19D] is higher in protein stability index: 1.81 for the first, 2.16 for the second.

First: FVKDPQGRIIAVFKPKNEPPYGHL [E19P]
Second: FVKDPQGRIIAVFKPKNEIPYGHL [E19I]
The protein stability index of the first is lower: 1.78 for the first, 2.62 for the second.

First: FVKDPQGRIIAVFKPKNEFPYGHL [E19F]
Second: FVKDPQGRIIAVFKPKNEVPYGHL [E19V]
The protein stability index of the first is lower: 1.52 for the first, 1.73 for the second.

Going from FVKDPQGRIIAVFKPKNEHPYGHL [E19H] to FVKDPQGRIIAVFKPKNEKPYGHL [E19K], the protein stability index rises from 2.1 to 2.58.

Going from FVKDPQGRIIAVFKPKNENPYGHL [E19N] to FVKDPQGRIIAVFKPKNEWPYGHL [E19W], the protein stability index rises from 1.91 to 2.91.

Going from FVKDPQGRIIAVFKPKNEGPYGHL [E19G] to FVKDPQGRIIAVFKPKNESPYGHL [E19S], the protein stability index rises from 1.67 to 1.71.

Going from FVKDPQGRIIAVFKPKNECPYGHL [E19C] to FVKDPQGRIIAVFKPKNEQPYGHL [E19Q], the protein stability index falls from 2.52 to 2.03.

Compared with FVKDPQGRIIAVFKPKNEAPYGHL [E19A], FVKDPQGRIIAVFKPKNELPYGHL [E19L] is higher in protein stability index: 1.58 for the first, 2.34 for the second.

First: FVKDPQGRIIAVFKPKNEEAYGHL [P20A]
Second: FVKDPQGRIIAVFKPKNEELYGHL [P20L]
The protein stability index of the first is higher: 2.94 for the first, 1.55 for the second.

Compared with FVKDPQGRIIAVFKPKNEESYGHL [P20S], FVKDPQGRIIAVFKPKNEEFYGHL [P20F] is lower in protein stability index: 2 for the first, 1.94 for the second.

Going from FVKDPQGRIIAVFKPKNEEIYGHL [P20I] to FVKDPQGRIIAVFKPKNEEYYGHL [P20Y], the protein stability index rises from 1.76 to 1.91.

Compared with FVKDPQGRIIAVFKPKNEEHYGHL [P20H], FVKDPQGRIIAVFKPKNEEKYGHL [P20K] is lower in protein stability index: 1.74 for the first, 1.2 for the second.

Going from FVKDPQGRIIAVFKPKNEEGYGHL [P20G] to FVKDPQGRIIAVFKPKNEEMYGHL [P20M], the protein stability index rises from 2.05 to 2.65.

FVKDPQGRIIAVFKPKNEEQYGHL [P20Q] and FVKDPQGRIIAVFKPKNEERYGHL [P20R] are the same in protein stability index: 1.7 for the first, 1.7 for the second.

Compared with FVKDPQGRIIAVFKPKNEENYGHL [P20N], FVKDPQGRIIAVFKPKNEEWYGHL [P20W] is higher in protein stability index: 1.94 for the first, 2.05 for the second.

First: FVKDPQGRIIAVFKPKNEECYGHL [P20C]
Second: FVKDPQGRIIAVFKPKNEEDYGHL [P20D]
The protein stability index of the first is lower: 1.78 for the first, 2.05 for the second.

First: FVKDPQGRIIAVFKPKNEEVYGHL [P20V]
Second: FVKDPQGRIIAVFKPKNEETYGHL [P20T]
The protein stability index of the first is lower: 1.16 for the first, 2.01 for the second.

First: FVKDPQGRIIAVFKPKNEEEYGHL [P20E]
Second: FVKDPQGRIIAVFKPKNEEPDGHL [Y21D]
The protein stability index of the first is lower: 1.75 for the first, 1.85 for the second.

FVKDPQGRIIAVFKPKNEEPVGHL [Y21V] and FVKDPQGRIIAVFKPKNEEPGGHL [Y21G] are the same in protein stability index: 1.65 for the first, 1.65 for the second.

Going from FVKDPQGRIIAVFKPKNEEPIGHL [Y21I] to FVKDPQGRIIAVFKPKNEEPCGHL [Y21C], the protein stability index falls from 2.91 to 2.

Compared with FVKDPQGRIIAVFKPKNEEPAGHL [Y21A], FVKDPQGRIIAVFKPKNEEPFGHL [Y21F] is higher in protein stability index: 1.57 for the first, 2.21 for the second.

Compared with FVKDPQGRIIAVFKPKNEEPPGHL [Y21P], FVKDPQGRIIAVFKPKNEEPTGHL [Y21T] is lower in protein stability index: 2.17 for the first, 1.74 for the second.

Going from FVKDPQGRIIAVFKPKNEEPKGHL [Y21K] to FVKDPQGRIIAVFKPKNEEPWGHL [Y21W], the protein stability index rises from 2.04 to 2.26.

First: FVKDPQGRIIAVFKPKNEEPNGHL [Y21N]
Second: FVKDPQGRIIAVFKPKNEEPRGHL [Y21R]
The protein stability index of the first is lower: 1.5 for the first, 2.11 for the second.

First: FVKDPQGRIIAVFKPKNEEPQGHL [Y21Q]
Second: FVKDPQGRIIAVFKPKNEEPLGHL [Y21L]
The protein stability index of the first is lower: 2.53 for the first, 2.85 for the second.

Compared with FVKDPQGRIIAVFKPKNEEPMGHL [Y21M], FVKDPQGRIIAVFKPKNEEPHGHL [Y21H] is higher in protein stability index: 1.54 for the first, 2.59 for the second.

First: FVKDPQGRIIAVFKPKNEEPSGHL [Y21S]
Second: FVKDPQGRIIAVFKPKNEEPEGHL [Y21E]
The protein stability index of the first is higher: 1.72 for the first, 1.44 for the second.
